From patent publication US20250186597A1, “TARGETED IMMUNE ACTIVATION WITH IL-18 IMMUNOCYTOKINES” (BRIGHT PEAK THERAPEUTICS AG, priority 2023, published 2025) come the findings set out here.

Assay [1] concerns NK-92 cells. Briefly: IL-18 binding protein inhibition cellular assay in NK-92 cells (Example 4, used in Example 22C). The format is cell-based, human. Particulars: inhibition by IL-18BP of IFNg stimulation in NK92 cells. As to the method:
The NK cell line NK-92 derived from a patient with lymphoma (ATCC® CRL-2407™) is cultured in aMEM medium supplemented with 20% FCS-Glutamax, 25 µM B-mercaptoethanol, and 100 IU/mL of recombinant human IL-2.
On the day of experiment, cells are harvested and washed with aMEM medium without IL-2 and containing 1 ng/mL of recombinant human IL-12. After counting, the cells are seeded at 100,000 cells/well in a 384 well titer plate and incubated at 37° C./5% CO2. Sixteen 2-fold serial dilutions of Fc-fused human IL-18 binding protein isoform a (IL-18BPa) are prepared in aMEM medium. 1 ng/mL of IL-12 containing 2 nM of each IL-18 polypeptide variant is added to the NK-92 cells. The final IL-18 analyte concentration is 1 nM, and the final IL-18BPa concentration ranged from 566 nM to […].
After incubating the cells for 16-20 hr at 37° C./5% CO2, 5 μL of the supernatant is carefully transferred to a 384 microwell OptiPlate. IFNγ levels are measured using a human IFNγ AlphaLISA Assay Kit. Briefly, 10 μL of 2.5× AlphaLISA anti-IFNγ acceptor beads and biotinylated antibody anti-IFNγ mix are added to 5 μL of NK-92 supernatants. The mixtures are incubated for 1 hr at room temperature with shaking. Under subdued light, 2.5 μL of 2×SA donor beads are pipetted in each well and incubated for 30 min at room temperature with shaking. AlphaLISA signals are then measured on an EnSpire™ plate reader using 680 nm and 615 nm as excitation and emission wavelengths, respectively. Half maximal inhibitory concentrations (IC50) are calculated based on a variable slope and four parameter analysis using GraphPad PRISM software.
The experiments described in Example 4 for determination of IFNg stimulation in NK92 cells (and inhibition by IL-18 BP) were performed substantially as described on IL-18 polypeptides in order to assess their activities and their suitability for incorporation into immunocytokine compositions. It is expected that the IL-18 polypeptides provided below would behave analagously to C086 (SEQ ID NO: 30) when incorporated into an immunocytokine composition as those otherwise provided herein.

Assay [2] concerns NK-92 cells. Briefly: IFNγ induction cellular assay in NK-92 cells (Example 4, used in Example 22C). It is filed as cell-based, human. Particulars: IFNg stimulation in NK92 cells.
A further assay deals with T1, human IL-18BP (Homo sapiens, UniProt O95998).
T1 construct: His
T1 sequence (O95998 31-194): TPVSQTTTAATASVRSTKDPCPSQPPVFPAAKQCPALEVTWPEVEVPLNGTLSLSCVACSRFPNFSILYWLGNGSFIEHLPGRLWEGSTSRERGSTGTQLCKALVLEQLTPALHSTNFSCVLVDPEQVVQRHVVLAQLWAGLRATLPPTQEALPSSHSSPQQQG
Briefly: IL-18BP binding alphaLISA assay (Example 4, used in Example 22B). The note with it: IL-18BP AlphaLISA. (Alpha assays give light when donor and acceptor beads are brought close together.)

Some results are limits rather than exact numbers.

B1: C157: IL-18 polypeptide: V11I, C38A, K53A, C76A, C127A, D132A (protein)
chain: YFGKLESKLSIIRNLNDQVLFIDQGNRPLFEDMTDSDARDNAPRTIFIISMYADSQPRGMAVTISVKCEKISTLSAENKIISFKEMNPPDNIKDTKSDIIFFQRSVPGHDNKMQFESSSYEGYFLAAEKERALFKLILKKEDELGDRSIMFTVQNED
On to B1, for which the IC50 with NK-92 cells [1] was found to be 6.08 nM. The same molecule returned an EC50 with NK-92 cells [2] of 0.056 nM. Binding with human IL-18BP was characterised by a dissociation constant (Kd) of 13.7 nM.

B2: C162: IL-18 polypeptide: K8E, V11I, C38A, C76A, Q103R, C127A (protein)
chain: YFGKLESELSIIRNLNDQVLFIDQGNRPLFEDMTDSDARDNAPRTIFIISMYKDSQPRGMAVTISVKCEKISTLSAENKIISFKEMNPPDNIKDTKSDIIFFRRSVPGHDNKMQFESSSYEGYFLAAEKERDLFKLILKKEDELGDRSIMFTVQNED
In the case of B2, the IC50 in the assay with NK-92 cells [1] is 7.29 nM. This molecule also returned a concentration for a half-maximal effect (EC50) in the assay on NK-92 cells [2] of 0.061 nM. For the same molecule, the Kd in the assay with human IL-18BP was determined as 0.85 nM.

B3: C159: IL-18 polypeptide: V11I, C38A, K53A, C76A, H109A, C127A (protein)
chain: YFGKLESKLSIIRNLNDQVLFIDQGNRPLFEDMTDSDARDNAPRTIFIISMYADSQPRGMAVTISVKCEKISTLSAENKIISFKEMNPPDNIKDTKSDIIFFQRSVPGADNKMQFESSSYEGYFLAAEKERDLFKLILKKEDELGDRSIMFTVQNED
For B3, the IC50 in the assay with NK-92 cells [1] came to 1.81 nM. This molecule also came in with an EC50 in the assay on NK-92 cells [2] of 0.123 nM. Further, the Kd with human IL-18BP was 0.55 nM.

B4: C168: IL-18 polypeptide: V11I, C38A, C76A, S105K, C127A (protein)
chain: YFGKLESKLSIIRNLNDQVLFIDQGNRPLFEDMTDSDARDNAPRTIFIISMYKDSQPRGMAVTISVKCEKISTLSAENKIISFKEMNPPDNIKDTKSDIIFFQRKVPGHDNKMQFESSSYEGYFLAAEKERDLFKLILKKEDELGDRSIMFTVQNED
In the assay on NK-92 cells [1], B4 had an IC50 of 0.176 nM. The concentration for a half-maximal effect (EC50) in the assay on NK-92 cells [2] worked out at 0.098 nM. This molecule returned a Kd in the assay with human IL-18BP of 0.05 nM.

B5: C160: IL-18 polypeptide: V11I, C38A, K53A, C76A, D110A, C127A (protein)
chain: YFGKLESKLSIIRNLNDQVLFIDQGNRPLFEDMTDSDARDNAPRTIFIISMYADSQPRGMAVTISVKCEKISTLSAENKIISFKEMNPPDNIKDTKSDIIFFQRSVPGHANKMQFESSSYEGYFLAAEKERDLFKLILKKEDELGDRSIMFTVQNED
In turn, B5 showed an IC50 with NK-92 cells [1] of 3.18 nM. Also, the EC50 with NK-92 cells [2] worked out at 0.028 nM. This molecule also showed a Kd with human IL-18BP of 0.71 nM.

B6: C167: IL-18 polypeptide: V11I, C38A, C76A, S105I, C127A (protein)
chain: YFGKLESKLSIIRNLNDQVLFIDQGNRPLFEDMTDSDARDNAPRTIFIISMYKDSQPRGMAVTISVKCEKISTLSAENKIISFKEMNPPDNIKDTKSDIIFFQRIVPGHDNKMQFESSSYEGYFLAAEKERDLFKLILKKEDELGDRSIMFTVQNED
In the assay on NK-92 cells [1], B6 gave an IC50 of 0.809 nM. In the assay with NK-92 cells [2], the concentration for a half-maximal effect (EC50) turned out to be 0.103 nM. The same molecule showed an equilibrium dissociation constant (Kd) with human IL-18BP of 0.04 nM.

B7: 34 (protein)
chain: YFGKLKSKLSVIRNLNDQVLFIDQGNRPLFEDMTDSDCRDNAPRTIFIISMYADAQPRGMAVTISVKCEKISTLSCENKIISFKEMNPPDNIKDTKSDIIFFQRSVPGHDNKMQFESSSYEGYFLACEKERDLFKLILKKEDELGDRSIMFTVQNED
As to B7, the half-maximal inhibitory concentration (IC50) in the assay on NK-92 cells [1] came to 229 nM. The molecule also yielded an EC50 in the assay with NK-92 cells [2] of 0.824 nM. Further, the Kd with human IL-18BP was above 1500 nM.

B8: C161: IL-18 polypeptide: K8R, V11I, C38A, C76A, Q103E, C127A (protein)
chain: YFGKLESRLSIIRNLNDQVLFIDQGNRPLFEDMTDSDARDNAPRTIFIISMYKDSQPRGMAVTISVKCEKISTLSAENKIISFKEMNPPDNIKDTKSDIIFFERSVPGHDNKMQFESSSYEGYFLAAEKERDLFKLILKKEDELGDRSIMFTVQNED
In turn, B8 had an IC50 in the assay on NK-92 cells [1] of 1.07 nM. The EC50 with NK-92 cells [2] was determined as 0.057 nM. Besides, the Kd with human IL-18BP was found to be 0.06 nM.

B9: C163: IL-18 polypeptide: V11I, C38A, C76A, Q103K, C127A (protein)
chain: YFGKLESKLSIIRNLNDQVLFIDQGNRPLFEDMTDSDARDNAPRTIFIISMYKDSQPRGMAVTISVKCEKISTLSAENKIISFKEMNPPDNIKDTKSDIIFFKRSVPGHDNKMQFESSSYEGYFLAAEKERDLFKLILKKEDELGDRSIMFTVQNED
In the case of B9, in the assay with NK-92 cells [1], the IC50 was determined as 0.823 nM. Besides, the EC50 in the assay with NK-92 cells [2] turned out to be 0.093 nM. In the assay with human IL-18BP, the Kd came out at 0.05 nM.

B10: C166: IL-18 polypeptide: V11I, C38A, S55T, C76A, C127A (protein)
chain: YFGKLESKLSIIRNLNDQVLFIDQGNRPLFEDMTDSDARDNAPRTIFIISMYKDTQPRGMAVTISVKCEKISTLSAENKIISFKEMNPPDNIKDTKSDIIFFQRSVPGHDNKMQFESSSYEGYFLAAEKERDLFKLILKKEDELGDRSIMFTVQNED
For B10, the IC50 with NK-92 cells [1] was 0.44 nM. Moreover, in the assay with NK-92 cells [2], the EC50 was 0.098 nM. In addition, binding with human IL-18BP was put at a Kd of 0.02 nM.

B11: C158: IL-18 polypeptide: V11I, C38A, K53A, C76A, G108A, C127A (protein)
chain: YFGKLESKLSIIRNLNDQVLFIDQGNRPLFEDMTDSDARDNAPRTIFIISMYADSQPRGMAVTISVKCEKISTLSAENKIISFKEMNPPDNIKDTKSDIIFFQRSVPAHDNKMQFESSSYEGYFLAAEKERDLFKLILKKEDELGDRSIMFTVQNED
Take B11: the 50% inhibitory concentration (IC50) with NK-92 cells [1] amounted to 3.98 nM. Also, a half-maximal response with NK-92 cells [2] (EC50) required 0.073 nM. The molecule further returned a Kd in the assay with human IL-18BP of 1.24 nM.

B12: C165: IL-18 polypeptide: V11I, C38A, S55R, C76A, C127A (protein)
chain: YFGKLESKLSIIRNLNDQVLFIDQGNRPLFEDMTDSDARDNAPRTIFIISMYKDRQPRGMAVTISVKCEKISTLSAENKIISFKEMNPPDNIKDTKSDIIFFQRSVPGHDNKMQFESSSYEGYFLAAEKERDLFKLILKKEDELGDRSIMFTVQNED
For the molecule B12, in the assay on NK-92 cells [1], the IC50 came to 0.885 nM. Moreover, in the assay on NK-92 cells [2], the EC50 came out at 0.176 nM. Binding with human IL-18BP was characterised by a dissociation constant (Kd) of 0.15 nM.

B13: C164: IL-18 polypeptide: V11I, C38A, S55H, C76A, C127A (protein)
chain: YFGKLESKLSIIRNLNDQVLFIDQGNRPLFEDMTDSDARDNAPRTIFIISMYKDHQPRGMAVTISVKCEKISTLSAENKIISFKEMNPPDNIKDTKSDIIFFQRSVPGHDNKMQFESSSYEGYFLAAEKERDLFKLILKKEDELGDRSIMFTVQNED
In the case of B13, the IC50 in the assay on NK-92 cells [1] was 0.456 nM. The response in the assay on NK-92 cells [2] was half-maximal at 0.414 nM (EC50). In the assay with human IL-18BP, this molecule registered a Kd of 0.08 nM.

B14: 35 (protein)
chain: GAGKLKSKLSVIRNLNDQVLFIDQGNRPLFEDMTDSDCRDNAPRTIFIISGYAAAQPRGMAVAISVKCEKISTLSCENKIISFKEMNPPDNIKDTKSDIIFFQRSVPGHDNKMQFESSSYEGYFLACEKERDLFKLILKKEDELGDRSIMFTVQNED
As to B14, in the assay with NK-92 cells [1], the IC50 was above 55 nM. This molecule also registered a 50% effective concentration (EC50) in the assay with NK-92 cells [2] above 55 nM. The same molecule yielded a Kd in the assay with human IL-18BP of 969 nM.

A word on the IC50: it is the concentration that gives 50% inhibition. A lower IC50 goes with higher potency. One may read the EC50 as the concentration giving half of the maximal effect. As a reminder, the Kd is the free concentration of one partner at which half of the binding sites on the other are occupied at equilibrium, for simple one-to-one binding. Read a high Kd as a looser complex.
